According to PMC10945830:

Target: Anthopleura YFP (AnthoYFP) from Neon Anthopleura sola (Anthopleura sola (endogenous in tentacles))
Experiment: SEC-MALS; isolated AnthoYFP pigment; self-association, tetramer; conditions of the SEC-MALS run not told in the main text

- stoichiometry N: 4
Substance: Anthopleura YFP (AnthoYFP) from Neon Anthopleura sola (natural protein)
